From US8303957B2, “Mutated immunogenic peptides derived from R9M, polynucleotides coding for same and therapeutic uses thereof” (Institut Pasteur, priority 2000, dated 2012)
“And” between values parts separate entries of the source, which are not always exact repeats. Equal values may be shown once. “Also recorded” adds a separate entry of the source. Marks after values point to notes of the source that are not given here. Non-standard residues stand in square brackets, D forms with d. No end group written: not given here. Abu = CC[C@H](N)C(=O)O

Legend:
HLA-A2.01 molecule [1] = target: T1, HLA-A2.01 molecule (Homo sapiens, UniProt P04439, D140Y/D185E/D98H/E176V/E277Q/G131W/G231S/I119V/I121R/I166T/I218V/L300P/L318F/N151K/N90K/P208A/P217A/Q86G/Q94H/R138H/R169H/T345S); experiment: Stabilization of HLA-A2.01 molecules at the surface of T2 cells (RA and DC50); format: binding; conditions: for Measurement of stabilization DC50 (half-life of peptide-HLA-A2.1 stabilized complexes): overnight incubation, indirect immunofluorescence/FACS at 0, 2, 4 and 5 h; for Measurement of stabilization RA: ratio of concentrations of tested versus reference peptide to attain 20% of maximal number of stabilized molecules
T1 construct: stability conferred on the peptide MHC complex thus formed at the cell surface by using tap T2 cells expressing HLA-A*02.01; endogenous in cells; host or cells: T2 cells
Excerpt: A person well-acquainted with the field of the invention will know how to obtain different mutated and derived peptides and will also know how to determine which of all of the peptides obtained are the peptides having adequate biological activity. […] The term DC50 characterizing the half-life of the peptide HLA-A2.01 complex is described in the publication “H-2 class 1 knockout, HLA-A2.1-transgenic mice: a versatile animal model for preclinical evaluation of antitumor immunotherapeutic strategies” (European Journal of Immunology: 29:3112-21, 1999). This half-life ought normally to make it capable of inducing in vivo or in vitro a cytotoxic immune response. Preferably, the peptide obtained will slow down the growth of lymphoblastic tumor cells when administered to a leukemic receiver and will trigger a cytotoxic T response to the leukemic cells of common type B-ALL with t(12;21) of the leukemic receiver.
It is known that the affinity of an epitopic peptide for the MHC predicts in part its immunogenic potential. This affinity can be measured by its binding capacity to class I MHC and by the stability conferred on the peptide MHC complex thus formed at the cell surface by using tap T2 cells expressing HLA-A*02.01.
These preliminary results have subsequently been used to optimize further the R9M peptide. […] The binding tests performed in vitro by using the soluble HLA-A2.01 molecules and T2 cells have shown that the binding to and the stabilization capacity for the HLA-A2.01 molecules was greater than that of the wildtype R9M peptide (Table 2).

HLA-A2.01 molecule [2] = target: T1, HLA-A2.01 molecule; experiment: Inhibition of binding of 125I-F10V (HBVc.18-27) to soluble HLA-A2.01 molecules
Procedure: The product of the chimeric genes resulting from the translocation (12;21) is a neoprotein which is expressed in the leukemic cells of common B-ALL type and which can be detected by Western blot. […] In a first step, the capacity of 9 junctional nonapeptides to inhibit the binding to soluble HLA-A*0201 was measured.

[3] = test system: EL4 S3-Rob-HHD cells expressing the TEL/AML1 fusion protein; experiment: Tumor model in HHD mice immunized with peptide and injected with tumor cells; conditions: groups of 8 HHD mice immunized beforehand; for development of tumors (in words): FIG. 3; for survival of the mice (in words): FIG. 4
[4] = test system: RMAS-HHD cells stimulated with the wildtype peptide; experiment: Secondary CTL response of immunized HHD mice against RMAS-HHD cells stimulated with the wildtype peptide; format: in vivo; conditions: responder = at least 10% specific lysis, targets with wildtype peptide
Excerpt: (§1) The immunogenicity of the mutated peptides was then studied in the HHD transgenic mouse (H2 class 1—negative and transgenic for HLA-A*02.01). These mice are described in European Journal of Immunology, 29:3112-21, 1999. Groups of more than 10 HHD mice were immunized by the synthetic peptides (emulsion in IFA with the helper peptide HBVcore128-140 as described previously in Firat et al., Eur. J. Immunol. 29:3112-21 (1999)).
(§2) On the other hand, the mutated peptides (having single or double substitutions) induce a strong CTL activity and lyse the TEL AML* tumor lines in the majority of cases (Table 3 and Table 4). The enhanced immunogenicity of the mutated R9M peptides was then confirmed in vitro by using mononucleated cells of 5 healthy HLA-A*02.01 subjects (FIG. 2).

[5] = test system: RMAS-HHD cells stimulated with the mutated peptide; experiment: Secondary CTL response of immunized HHD mice against RMAS-HHD cells stimulated with the mutated peptide; format: in vivo; conditions: for R/T (mice responders versus total of mice tested): responder = at least 10% specific lysis
Excerpt: as §1, §2

TEL/AML+ EL4-HHD cells = experiment: Tertiary CTL response of immunized HHD mice against TEL/AML+ EL4-HHD cells; format: in vivo; conditions: responder = at least 10% specific lysis, TEL/AML+ EL4-HHD targets
Excerpt: as §1, §2

[6] = test system: RMAS-HHD cells stimulated with the mutated peptide; experiment: Tertiary CTL response of immunized HHD mice against RMAS-HHD cells stimulated with the mutated peptide; format: in vivo; conditions: for R/T (mice responders versus total of mice tested): responder = at least 10% specific lysis, targets with mutated peptide
Excerpt: as §1, §2

HLA-A2.1*T2 target cells = conditions: results in the public domain; cited from earlier work
[7] = secondary response, targets with mutated peptide

Substance | Measurement of stabilization DC50 (half-life of peptide-HLA-A2.1 stabilized complexes) (HLA-A2.01 molecule [1]) | Measurement of stabilization RA (HLA-A2.01 molecule [1]) | percentage inhibition of the binding of F10V, ratio peptide/125I-F10V 10/1 (HLA-A2.01 molecule [2]) | percentage inhibition of the binding of F10V, ratio peptide/125I-F10V 25/1 (HLA-A2.01 molecule [2]) | R/T (mice responders versus total of mice tested) [4] | R/T (mice responders versus total of mice tested) [5, 7] | R/T (mice responders versus total of mice tested) (TEL/AML+ EL4-HHD cells) | R/T (mice responders versus total of mice tested) [6] | also measured
AMPIGRIAE [A9E] | 2 to 4 h | 10-100 | 47^d % | 57% | – | – | – | – | –
ILKEPVHGV [HIV 1 rt.476, reference compound] | 5 h | 1 | – | – | – | – | – | – | –
PIGRIAECI [P91] | 0 h | >100 | – | – | – | – | – | – | –
RIAEAILGM [R9M-5A] | <2 h | 3.2 | 59% | 72% | 2/10 | 2/10 | 6/10 | 1/10 | development of tumors (in words) [3]: capable of slowing down the development of tumors; survival of the mice (in words) [3]: prolonging the survival of the mice; % of clear lysis (maximal lysis for each mouse responder) ([6]; E/T ratio 60:1, targets with mutated peptide): (20) %
RIAECILGM (listed as Homo sapiens) [R9M, reference compound] | <2 h | 2.9 | 64% | 69% | – | 1/18 | 5/10 | 2/10 | stability of the peptide/HLA-A2.01 complex at the surface of T2 cells (in words) (HLA-A2.01 molecule [1]): quite unstable; also recorded: not very stable; % of clear lysis (maximal lysis for each mouse responder) ([5]; secondary response, E/T ratio 60:1, targets with mutated peptide): (13) %; CTL response induced in immunized HLA-A2.01 transgenic (HHD) mice (in words) ([5]; synthetic peptide in IFA with helper peptide HBVcore128-140): inconstancy and the weakness of the CTL responses induced; also recorded: inconstancy and weakness of the CTL responses induced; also recorded: weak specific CTL response; capacity to induce CTLs from the peripheral blood of healthy donors (in words) (HLA-A2.1*T2 target cells): has been demonstrated
RIAESILGM [R9M-5S] | 2 h | 2.2 | 74% | 75% | 6/14 | 11/14 | 11/14 | 6/10 | development of tumors (in words) [3]: capable of slowing down the development of tumors; survival of the mice (in words) [3]: prolonging the survival of the mice
RIAEα-butILGM (RIAE[Abu]ILGM) [R9M-5α-but] | 2 h | 2 | 27% | 49% | – | – | – | 8/10 | development of tumors (in words) [3]: capable of slowing down the development of tumors; survival of the mice (in words) [3]: prolonging the survival of the mice; R/T (mice responders versus total of mice tested) ([4]; listed as R9M-5a-but): 5/10 and 8/10; R/T (mice responders versus total of mice tested) ([5]; secondary response, targets with mutated peptide, listed as R9M-5a-but): 7/10 and 8/10; R/T (mice responders versus total of mice tested) (TEL/AML+ EL4-HHD cells; listed as R9M-5a-but): 7/10 and 10/10
YIAEAILGM [Y9M-5A] | 2 to 5 h | 0.9 | 79% | 87% | 7/10 | 8/10 | 5/10 | 9/10 | –
YIAECILGM [Y9M] | <2 h | >100 | – | – | – | – | – | – | –
YIAESILGM [Y9M-5S] | 2 to 5 h | 1.4 | 25% | 37% | 3/10 | 9/10 | 6/10 | 9/10 | –
YIAEα-butILGM (YIAE[Abu]ILGM) [Y9M-5α-but] | 2 to 5 h | 0.7 | 26% | 26% | – | – | – | – | –
YIGRIAECI [Y9I] | <2 h | >100 | – | – | – | – | – | – | –
YMPIGRIAE [Y9E] | 0 h | >100 | – | – | – | – | – | – | –
